From article PMC3800186

Molecular target: HIV-1 YU2 gp120 S375A mutant (HIV-1 YU2)
Experiment: SPR

KR21 biotinylated peptide triazole
IC50: 1280 nM
